B1: TFE3 (parent)
chain: FPSDHLGDLGDPFHLGLEDILMEE

Variants of: B1
Assay: protein stability index of a GFP-peptide fusion (GPS, HEK-293T) (PSI 1-6); higher = more stable
Details: c terminus: a fixed tail appended
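Also: lentivirally expressed fusions sorted by FACS into six bins by GFP to DsRed ratio, PSI derived from sequencing read proportions per bin multiplied by bin number.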

Protein stability index: each site, then its substitutions
D8: F 2.52; H 2.73; T 2.36; N 3.28; A 2.96; W 1.98; E 3.73; R 2.15; K 2.42; G 3.09; L 2.33; M 2.96; I 3.03; Q 3.07
S3: G 2.97; Y 2.45; W 2.2; F 2.29; V 2.56; Q 3.57; H 2.91; R 2.6; D 4.07; K 2.67; T 2.9
I20: F 3.82; D 4.26; L 3.91; H 3.92; M 3.63; E 4.2; K 4.05; G 4.16; N 4.29; Q 4.37; A 3.28; R 3.5; Y 3.88
L6: G 3.64; K 3.22; R 2.98; C 3.42; I 3.37; W 1.75; T 3.79; P 3.57; S 3.35; D 4.09; Y 2.78; M 3.71; N 3.85
G7: L 3.41; C 2.89; S 3.73; I 3.12; N 3.43; K 3.07; D 4.3; H 3.11; Y 3.22; Q 3.67; M 3.29; W 2.73; F 2.69; A 3.94; P 4.3
P12: I 3.23; H 3.98; D 4.35; A 3.11; F 4.01; W 2.71; Y 3.4; G 4.1; S 4.84; L 2.81; E 4.15; Q 4.29; M 3.46; K 4.02; R 4.1
H5: W 1.35; D 4.42; I 3.08; K 2.83; V 3.87; T 3.88; C 3.73; F 3.28; Y 3.18; A 4.06; P 3.68; L 3.3; M 3.33; N 3.87; G 3.36; E 4.15; R 3.52
L17: G 3.7; P 3.67; T 3.47; R 3.55; D 4.5; H 4.29; K 3.53; F 3.1; C 3.5; N 4.21; Y 3.46; Q 3.55; E 4.11; M 2.91
M22: F 3.14; K 3.98; L 3.24; P 3.71; H 3.7; C 3.53; R 3.33; E 4.79; Q 3.75; G 3.64; Y 3.13
L9: H 3.66; P 3.42; V 3.48; N 4.32; A 3.63; Y 3.29; K 3.94; T 3.79; Q 3.64; E 4; D 4.5; C 3.5; I 3.54; G 3.54; M 3.74; F 3.45
H14: F 3.09; M 3.74; Q 4.09; K 3.7; T 3.64; W 2.27; Y 3.32; S 4.25; A 4; I 3.44; D 4.61; G 4.14; N 3.67; C 2.66
G10: V 3.63; Q 3.05; Y 2.21; L 3.05; H 2.95; F 2.54; R 3.3; W 2.76; T 3.46; D 3.37; C 2.93
E18: G 2.86; I 2.01; T 2.72; K 2.85; R 2.28; D 3.87; H 2.72; F 1.91; Y 2.1; L 1.98; N 3.12; V 3.22; A 2.7; W 2.65; P 3.07
G16: V 2.67; M 3.51; I 2.31; H 3.25; S 3.26; L 2.4; C 2.7; F 2.16; A 3.58; D 3.59; Q 3.6; W 1.85; Y 2.68; N 3.34; E 3.96; T 3.1; R 2.7
F13: S 4.87; K 4.89; T 4.93; A 4.62; C 4.62; H 5.09; I 4.34; D 5.22; P 4.91; L 4.25; Y 2.82
L21: D 4.26; M 3.38; F 3.28; A 4.03; Y 3.31; C 3.42; T 3.93; K 4.06; N 3.85; H 4.08; Q 3.94; S 3.69; E 4.28; I 3.32
E24: P 2.77; Q 2.96; H 2.75; V 1.59; L 1.97; K 2.59; Y 2.35; T 2.95; S 2.91; R 2.87; N 3.49
D19: R 2.77; W 2.16; M 2.28; N 3.06; S 2.69; L 2.03; K 3.29; P 3.31; E 3.2; H 3.29; V 1.97; F 2.09
E23: D 2.86; Y 2.3; P 2.76; I 2.62; R 2.95; T 3.24; H 2.86; G 2.47; Q 3.26; M 2.33; A 2.45; L 2.44; N 2.65; W 2.56; S 2.81; K 3.34; V 3.85; F 2.42
D4: I 2.76; M 2.77; F 2.75; P 3.11; W 1.7; L 2.37; R 2.04; T 2.35; Q 3.03; S 2.51; C 2.33; A 2.26; H 1.91; N 3.22; K 1.87
F1: N 4.91; G 5.12; H 4.7; L 4.55; I 4.61; K 4.41; Q 4.57; V 4.88; S 5.1; P 5.13; E 4.96; M 4.82; A 5.42; W 4.36; R 4.64
D11: A 3.23; P 3.87; I 3.23; R 3.72; E 4.24; W 1.89; M 3.08; F 2.66; V 3.32; N 2.12; G 3.52; Q 4.41; C 2.74; K 3.42
P2: M 3.25; K 3.97; Q 2.63; F 2.83; A 2.62; I 2.12; G 3.62; S 3.96; T 2.74; N 4.24; Y 3; C 2.57; L 3.37; H 1.84
L15: Y 3.56; G 3.63; R 3.61; W 3.49; K 3.1; P 3.7; Q 3.87; S 3.67; N 3.77; E 4.21; M 3.35; D 4.45; F 3.36; T 3.85

From the supplement of paper PMC10567573
